According to article PMC4833948:

Key:
[1] = target: human NHE1 C-terminal distal tail, M + I680-Q815 (hNHE1cdt WT) (human) (UniProt P19634)
hNHE1cdt F1-A (human) = hNHE1cdt F1-A (human) (UniProt P19634)
[2] = target: hNHE1cdt D1D2-(AXA)2 (human) (UniProt P19634)
hNHE1cdt D3-AXA (human) = hNHE1cdt D3-AXA (human) (UniProt P19634)
hNHE1cdt F2-AA (human) = hNHE1cdt F2-AA (human) (UniProt P19634)

k app of phosphorylation of S693 of hNHE1cdt by aERK2 (time-resolved NMR, 25 °C) [1]: 0.349 h⁻¹
k app of phosphorylation of S723/S726 of hNHE1cdt by aERK2 (decrease of the S723 peak; time-resolved NMR, 25 °C) [1]: 0.0821 h⁻¹
k app of phosphorylation of S771 of hNHE1cdt by aERK2 (time-resolved NMR, 25 °C) [1]: 0.0088 h⁻¹
k app of phosphorylation of S785 of hNHE1cdt by aERK2 (time-resolved NMR, 25 °C) [1]: 0.0305 h⁻¹
k app of phosphorylation of T779 of hNHE1cdt by aERK2 (time-resolved NMR, 25 °C) [1]: 0.165 h⁻¹
k app of phosphorylation of S693 of hNHE1cdt by aERK2 (time-resolved NMR, 25 °C) (hNHE1cdt F1-A (human)): 0.3 h⁻¹
k app of phosphorylation of S723/S726 of hNHE1cdt by aERK2 (decrease of the S723 peak; time-resolved NMR, 25 °C) (hNHE1cdt F1-A (human)): 0.0741 h⁻¹
k app of phosphorylation of S771 of hNHE1cdt by aERK2 (time-resolved NMR, 25 °C) (hNHE1cdt F1-A (human)): 0.0047 h⁻¹
k app of phosphorylation of S785 of hNHE1cdt by aERK2 (time-resolved NMR, 25 °C) (hNHE1cdt F1-A (human)): 0.0088 h⁻¹
k app of phosphorylation of T779 of hNHE1cdt by aERK2 (time-resolved NMR, 25 °C) (hNHE1cdt F1-A (human)): 0.147 h⁻¹
k app of phosphorylation of S693 of hNHE1cdt by aERK2 (time-resolved NMR, 25 °C) [2]: 0.319 h⁻¹
k app of phosphorylation of S723/S726 of hNHE1cdt by aERK2 (decrease of the S723 peak; time-resolved NMR, 25 °C) [2]: 0.061 h⁻¹
k app of phosphorylation of S771 of hNHE1cdt by aERK2 (time-resolved NMR, 25 °C) [2]: 0.0066 h⁻¹
k app of phosphorylation of S785 of hNHE1cdt by aERK2 (time-resolved NMR, 25 °C) [2]: 0.0302 h⁻¹
k app of phosphorylation of T779 of hNHE1cdt by aERK2 (time-resolved NMR, 25 °C) [2]: 0.157 h⁻¹
k app of phosphorylation of S693 of hNHE1cdt by aERK2 (time-resolved NMR, 25 °C) (hNHE1cdt D3-AXA (human)): 0.349 h⁻¹
k app of phosphorylation of S723/S726 of hNHE1cdt by aERK2 (decrease of the S723 peak; time-resolved NMR, 25 °C) (hNHE1cdt D3-AXA (human)): 0.0592 h⁻¹
k app of phosphorylation of S771 of hNHE1cdt by aERK2 (time-resolved NMR, 25 °C) (hNHE1cdt D3-AXA (human)): 0.007 h⁻¹
k app of phosphorylation of S785 of hNHE1cdt by aERK2 (time-resolved NMR, 25 °C) (hNHE1cdt D3-AXA (human)): 0.0325 h⁻¹
k app of phosphorylation of T779 of hNHE1cdt by aERK2 (time-resolved NMR, 25 °C) (hNHE1cdt D3-AXA (human)): 0.141 h⁻¹
k app of phosphorylation of S693 of hNHE1cdt by aERK2 (time-resolved NMR, 25 °C) (hNHE1cdt F2-AA (human)): 0.444 h⁻¹
k app of phosphorylation of S723/S726 of hNHE1cdt by aERK2 (decrease of the S723 peak; time-resolved NMR, 25 °C) (hNHE1cdt F2-AA (human)): 0.127 h⁻¹
k app of phosphorylation of S771 of hNHE1cdt by aERK2 (time-resolved NMR, 25 °C) (hNHE1cdt F2-AA (human)): 0.0088 h⁻¹
k app of phosphorylation of S785 of hNHE1cdt by aERK2 (time-resolved NMR, 25 °C) (hNHE1cdt F2-AA (human)): 0.012 h⁻¹
k app of phosphorylation of T779 of hNHE1cdt by aERK2 (time-resolved NMR, 25 °C) (hNHE1cdt F2-AA (human)): 0.144 h⁻¹
Substance: active ERK2 (aERK2) (from UniProt P28482 1-360) (enzyme)
